Measurements from patent EP1241259A1 (UNIVERSITE LIBRE DE BRUXELLES, dated 2002).

Target: ORL1 (Opioid Receptor-Like 1) receptor stably expressed on recombinant CHO(ORL1^+) cells (UniProt P41146 1-370, limits assumed)
Assay: cell-based or functional assay

Chain of ORL1 (Opioid Receptor-Like 1) receptor stably expressed on recombinant CHO(ORL1^+) cells (P41146 whole entry): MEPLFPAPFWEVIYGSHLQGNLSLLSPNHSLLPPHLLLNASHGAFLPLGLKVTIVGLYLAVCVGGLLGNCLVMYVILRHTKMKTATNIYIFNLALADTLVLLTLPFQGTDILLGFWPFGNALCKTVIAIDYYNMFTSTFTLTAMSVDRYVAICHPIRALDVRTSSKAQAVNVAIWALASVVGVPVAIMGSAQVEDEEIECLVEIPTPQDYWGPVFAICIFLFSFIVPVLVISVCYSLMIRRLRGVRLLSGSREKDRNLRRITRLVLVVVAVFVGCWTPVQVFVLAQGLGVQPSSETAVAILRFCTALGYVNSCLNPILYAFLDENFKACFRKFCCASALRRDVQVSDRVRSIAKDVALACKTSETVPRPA

- inhibition of forskolin-induced accumulation of cAMP in CHO cells expressing the receptor, IC50: 1 nM
Binder: YGGFTGARKSARKLANQ [^1Tyr analogue of the synthetic heptadecapeptide]
